Data as given in the supplement of paper PMC7125110.
± gives the standard error. Variants at the floor of the assay were thinned out.

B1: glmS ribozyme (parent)
chain: AUAAAAGCGCCAGAACUACAGAAAUGUAGUUGACGAGGAGGAGGUUUAUCGAAUUUUCGGCGGAUGCCUCCAAA

Columns and labels:
Details in all cases: with glucosamine-6-phosphate
[1] = variants of: B1; assay: self-cleavage kobs at 640 uM GlcN6P; higher = faster cleavage; RNA array
How it was run: (§1)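 Tracking of barcoded ribozyme variants used a hybridised Cy3 probe at 37 °C, after in situ transcription by E. coli RNA polymerase on sequenced MiSeq chips. The flowed solution held 40 μM to 10 mM glucosamine-6-phosphate in HEPES/KCl/Mg(OAc)2 buffer, and imaging ran over ~14 h. kobs was taken from exponential decay fits of normalised per-tile medians, and kcat and KM from weighted Michaelis–Menten fits.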

[2] = variants of: B1; assay: self-cleavage kobs at 2500 uM GlcN6P; higher = faster cleavage; RNA array
How it was run: as §1

[3] = variants of: B1; assay: self-cleavage kobs at 10000 uM GlcN6P; higher = faster cleavage; RNA array
How it was run: as §1

| Variant | self-cleavage kobs at 640 uM GlcN6P [1] [s⁻¹] | self-cleavage kobs at 2500 uM GlcN6P [2] [s⁻¹] | self-cleavage kobs at 10000 uM GlcN6P [3] [s⁻¹] |
| --- | --- | --- | --- |
| A15G G29U C70U | 0.000127 ± 2.4e-05 | 9.76e-05 ± 3.9e-05 | – |
| U54A G66A C67A | 0.00151 ± 0.00064 | 0.00163 ± 0.00044 | – |
| A52G C58G U65C | < 1e-05 | – | – |
| A14C G29A G35A G59A | < 1e-05 | < 1e-05 | – |
| G7U C11G A64U | < 1e-05 | < 1e-05 | < 1e-05 |
| U46C C71G | 7.56e-05 ± 1.5e-05 | 0.000331 ± 5e-05 | 0.000149 ± 6.2e-05 |
| G41C G59U C70G | 3.61e-05 ± 1.7e-05 | 0.000118 ± 3.1e-05 | 0.000122 ± 2.1e-05 |
| C11G C16A G43U | < 1e-05 | – | – |
| G29U G40C A52G C58A C68A | < 1e-05 | < 1e-05 | – |
| C8U A15C C16G U30C | < 1e-05 | – | – |
| A14C U56G C67G | 0.000636 ± 0.00024 | 0.00165 ± 0.00073 | 0.0219 ± 0.0084 |
| U49C U65A | < 1e-05 | – | < 1e-05 |
| A12C G29C U30G | 0.000163 ± 2.9e-05 | 0.000329 ± 8.6e-05 | – |
| A52C G59A U65A | < 1e-05 | < 1e-05 | – |
| G32C G44U A64C | < 1e-05 | – | < 1e-05 |
| G35C G38A C68G | 0.00152 ± 0.00066 | – | – |
| G13U C58A U69A | 6.33e-05 ± 2e-05 | – | – |
| C34G C61U C70G | < 1e-05 | < 1e-05 | – |
| C11U A15C G29C G32U C50G | 0.000512 ± 0.00014 | 0.000149 ± 3.9e-05 | – |
| C50U U56A G66U | < 1e-05 | < 1e-05 | – |
| A14U U17C A18U C19A G59U G66A | < 1e-05 | < 1e-05 | – |
| C16U U46C G62U | < 1e-05 | – | – |
| C34G G43C A52G | < 1e-05 | < 1e-05 | – |
| G40C G43C C70A | < 1e-05 | < 1e-05 | – |
| G29A G32A G66A | 0.000119 ± 2.8e-05 | 0.000338 ± 8.3e-05 | – |
| A6G A36U A42G G44U G60C | < 1e-05 | – | – |
| C10G C11A C58A G66U | < 1e-05 | – | – |
| A22G A36G U56C C70G | < 1e-05 | < 1e-05 | – |
| A15U A52G C58U | < 1e-05 | – | – |
| G44U U47G A52G A64G | < 1e-05 | – | – |
